Measured values reported in publication PMC12747262 (bioRxiv, 2025).

B3: TTC7A (natural protein)
chain: MAAKGAHGSYLKVESELERCRAEGHWDRMPELVRQLQTLSMPGGGGNRRGSPSAAFTFPDTDDFGKLLLAEALLEQCLKENHAKIKDSMPLLEKNEPKMSEAKNYLSSILNHGRLSPQYMCEAMLILGKLHYVEGSYRDAISMYARAGIDDMSMENKPLYQMRLLSEAFVIKGLSLERLPNSIASRFRLTEREEEVITCFERASWIAQVFLQELEKTTNNSTSRHLKGCHPLDYELTYFLEAALQSAYVKNLKKGNIVKGMRELREVLRTVETKATQNFKVMAAKHLAGVLLHSLSEECYWSPLSHPLPEFMGKEESSFATQALRKPHLYEGDNLYCPKDNIEEALLLLLISESMATRDVVLSRVPEQEEDRTVSLQNAAAIYDLLSITLGRRGQYVMLSECLERAMKFAFGEFHLWYQVALSMVACGKSAYAVSLLRECVKLRPSDPTVPLMAAKVCIGSLRWLEEAEHFAMMVISLGEEAGEFLPKGYLALGLTYSLQATDATLKSKQDELHRKALQTLERAQQLAPSDPQVILYVSLQLALVRQISSAMEQLQEALKVRKDDAHALHLLALLFSAQKHHQHALDVVNMAITEHPENFNLMFTKVKLEQVLKGPEEALVTCRQVLRLWQTLYSFSQLGGLEKDGSFGEGLTMKKQSGMHLTLPDAHDADSGSRRASSIAASRLEEAMSELTMPSSVLKQGPMQLWTTLEQIWLQAAELFMEQQHLKEAGFCIQEAAGLFPTSHSVLYMRGRLAEVKGNLEEAKQLYKEALTVNPDGVRIMHSLGLMLSRLGHKSLAQKVLRDAVERQSTCHEAWQGLGEVLQAQGQNEAAVDCFLTALELEASSPVLPFSIIPREL

Columns and labels:
[1] = target: TTC7A-FAM126A (1–308) heterodimer (UniProt Q9ULT0;Q9BYI3); assay: BLI
[2] = target: TTC7B-FAM126B (1–308) heterodimer (UniProt Q86TV6;Q8IXS8); assay: BLI
[3] = target: TTC7A-FAM126B (1–308) heterodimer (UniProt Q9ULT0;Q8IXS8); assay: BLI
[4] = target: TTC7B-FAM126A (1–308) heterodimer (UniProt Q86TV6;Q9BYI3); assay: BLI
[5] = target: PI4KA-TTC7B-FAM126A (1–308) complex (UniProt P42356;Q86TV6;Q9BYI3); assay: BLI
[6] = target: PI4KA-TTC7A-FAM126A (1–308) complex (UniProt P42356;Q9ULT0;Q9BYI3); assay: BLI
PI4KA [7] = target: T1, PI4KA (UniProt P42356 1-2102); assay: cryo-EM structure
PI4KA [8] = target: T1, PI4KA; assay: SEC
[9] = target: T2, TTC7B (from the E. coli dimers) (UniProt Q86TV6 1-843); assay: SEC
T2 sequence: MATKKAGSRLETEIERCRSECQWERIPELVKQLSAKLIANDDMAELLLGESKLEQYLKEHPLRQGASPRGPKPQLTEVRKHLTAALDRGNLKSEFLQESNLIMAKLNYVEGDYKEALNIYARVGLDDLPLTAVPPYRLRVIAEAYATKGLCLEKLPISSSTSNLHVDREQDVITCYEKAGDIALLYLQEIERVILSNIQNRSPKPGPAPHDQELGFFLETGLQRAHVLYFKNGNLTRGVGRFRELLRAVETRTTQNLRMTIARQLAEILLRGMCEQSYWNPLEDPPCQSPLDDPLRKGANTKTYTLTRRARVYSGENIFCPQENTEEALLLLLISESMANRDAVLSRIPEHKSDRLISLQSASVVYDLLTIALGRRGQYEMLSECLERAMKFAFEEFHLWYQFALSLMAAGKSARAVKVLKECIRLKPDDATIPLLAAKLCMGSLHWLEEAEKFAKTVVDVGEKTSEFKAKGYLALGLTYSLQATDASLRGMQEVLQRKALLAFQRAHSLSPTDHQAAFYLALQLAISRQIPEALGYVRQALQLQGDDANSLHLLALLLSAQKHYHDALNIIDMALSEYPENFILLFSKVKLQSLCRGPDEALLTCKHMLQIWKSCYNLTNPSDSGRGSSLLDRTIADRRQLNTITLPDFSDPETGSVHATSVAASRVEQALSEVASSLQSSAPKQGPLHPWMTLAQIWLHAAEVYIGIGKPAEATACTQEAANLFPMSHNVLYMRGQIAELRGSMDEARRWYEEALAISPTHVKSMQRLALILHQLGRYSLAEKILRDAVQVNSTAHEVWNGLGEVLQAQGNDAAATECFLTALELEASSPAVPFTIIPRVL

TTC7A = target: B3; assay: SEC

B1: His-tagged MBP-EFR3A (721–791) (domain or fragment)
chain: SNTEEITFEALKKAIDTSGMEEQEKEKRRLVIEKFQKAPFEEIAAQCESKANLLHDRLAQILELTIRPPPS
B1 was tested, and the Kd [1] was about 0.3 nM, the Kd [2] was about 0.3 nM and the Kd [3] was about 0.3 nM. For the same binder, the Kd [4] was 0.041 ± 0.025 nM, the Kd [5] was 0.043 ± 0.014 nM and the Kd [6] was 0.34 ± 0.13 nM.

B2: TTC7B (from the Sf9 PI4KA complex) (natural protein)
chain: MATKKAGSRLETEIERCRSECQWERIPELVKQLSAKLIANDDMAELLLGESKLEQYLKEHPLRQGASPRGPKPQLTEVRKHLTAALDRGNLKSEFLQESNLIMAKLNYVEGDYKEALNIYARVGLDDLPLTAVPPYRLRVIAEAYATKGLCLEKLPISSSTSNLHVDREQDVITCYEKAGDIALLYLQEIERVILSNIQNRSPKPGPAPHDQELGFFLETGLQRAHVLYFKNGNLTRGVGRFRELLRAVETRTTQNLRMTIARQLAEILLRGMCEQSYWNPLEDPPCQSPLDDPLRKGANTKTYTLTRRARVYSGENIFCPQENTEEALLLLLISESMANRDAVLSRIPEHKSDRLISLQSASVVYDLLTIALGRRGQYEMLSECLERAMKFAFEEFHLWYQFALSLMAAGKSARAVKVLKECIRLKPDDATIPLLAAKLCMGSLHWLEEAEKFAKTVVDVGEKTSEFKAKGYLALGLTYSLQATDASLRGMQEVLQRKALLAFQRAHSLSPTDHQAAFYLALQLAISRQIPEALGYVRQALQLQGDDANSLHLLALLLSAQKHYHDALNIIDMALSEYPENFILLFSKVKLQSLCRGPDEALLTCKHMLQIWKSCYNLTNPSDSGRGSSLLDRTIADRRQLNTITLPDFSDPETGSVHATSVAASRVEQALSEVASSLQSSAPKQGPLHPWMTLAQIWLHAAEVYIGIGKPAEATACTQEAANLFPMSHNVLYMRGQIAELRGSMDEARRWYEEALAISPTHVKSMQRLALILHQLGRYSLAEKILRDAVQVNSTAHEVWNGLGEVLQAQGNDAAATECFLTALELEASSPAVPFTIIPRVL
B2: binds (PI4KA [7]).

B3: binds (PI4KA [8]).

B4: FAM126B (1–308) (from the E. coli dimer) (domain or fragment)
chain: MLGTDRCVVEEWLSEFKALPDTQITSYAATLHRKKTLVPALYKVIQDSNNELLEPVCHQLFELYRSSEVRLKRFTLQFLPELMWVYLRLTVSRDRQSNGCIEALLLGIYNLEIADKDGNNKVLSFTIPSLSKPSIYHEPSTIGSMALTEGALCQHDLIRVVYSDLHPQRETFTAQNRFEVLSFLMLCYNSAIVYMPASSYQSLCRMGSRVCVSGFPRQHEKHWKELCGRIVLDPEFMVQLLTGVYYAMYNGQWDLGQEVLDDIIYRAQLELFSQPLLVANAMKNSLPFDAPDSTQEGQKVLKVEVTPT
B4: binds [9].

B5: FAM126B (1–308) (from the Sf9 dimer) (domain or fragment)
chain: MLGTDRCVVEEWLSEFKALPDTQITSYAATLHRKKTLVPALYKVIQDSNNELLEPVCHQLFELYRSSEVRLKRFTLQFLPELMWVYLRLTVSRDRQSNGCIEALLLGIYNLEIADKDGNNKVLSFTIPSLSKPSIYHEPSTIGSMALTEGALCQHDLIRVVYSDLHPQRETFTAQNRFEVLSFLMLCYNSAIVYMPASSYQSLCRMGSRVCVSGFPRQHEKHWKELCGRIVLDPEFMVQLLTGVYYAMYNGQWDLGQEVLDDIIYRAQLELFSQPLLVANAMKNSLPFDAPDSTQEGQKVLKVEVTPT
B5: binds (TTC7A).

B6: FAM126A (1–308) (from the Sf9 complexes) (domain or fragment)
chain: MFTSEKGVVEEWLSEFKTLPETSLPNYATNLKDKSSLVSSLYKVIQEPQSELLEPVCHQLFEFYRSGEEQLLQFTLQFLPELIWCYLAVSASRNVHSSGCIEALLLGVYNLEIVDKQGHTKVLSFTIPSLSKPSVYHEPSSIGSMALTESALSQHGLSKVVYSGPHPQREMLTAQNRFEVLTFLLLCYNAALTYMPSVSLQSLCQICSRICVCGYPRQHVRKYKGISSRIPVSSGFMVQMLTGIYFAFYNGEWDLAQKALDDIIYRAQLELYPEPLLVANAIKASLPHGPMKSNKEGTRCIQVEITPT
B6: binds (TTC7A).

B7: His-tagged MBP-EFR3B (716–787) (domain or fragment)
chain: VPAEEITYETLKKAIVDSVAVEEQERERRRQVVEKFQKAPFEEIAAHCGARASLLQSKLNQIFEITIRPPPS
For B7, the binding result [1] was “binds”, the Kd [2] was about 0.3 nM and the binding result [3] was “binds”. It also gave a Kd [4] of about 0.3 nM.
